{"source": "patent EP4745153A1", "about": "“GLP-1, GIP AND GCG RECEPTOR […] USE THEREOF” (Jiangsu Hengrui Pharmaceuticals Co., Ltd., priority 2023, dated 2025)", "binders": {"B1": {"name": "Compound No. 0148 (peptide)", "peptide": "H[Aib]HGTFTSDLSILLEK([AEEA-AEEA-γGlu-C20 diacid])QAA[Ac3c]EFVEWLLA[dE]GPSSGAPPPS-NH2", "modifications": "N-terminus assumed", "SMILES": "CC[C@H](C)[C@H](NC(=O)[C@H](CO)NC(=O)[C@H](CC(C)C)NC(=O)[C@H](CC(=O)O)NC(=O)[C@H](CO)NC(=O)[C@@H](NC(=O)[C@H](Cc1ccccc1)NC(=O)[C@@H](NC(=O)CNC(=O)[C@H](Cc1c[nH]cn1)NC(=O)C(C)(C)NC(=O)[C@@H](N)Cc1c[nH]cn1)[C@@H](C)O)[C@@H](C)O)C(=O)N[C@@H](CC(C)C)C(=O)N[C@@H](CC(C)C)C(=O)N[C@@H](CCC(=O)O)C(=O)N[C@@H](CCCCNC(=O)COCCOCCNC(=O)COCCOCCNC(=O)CC[C@H](NC(=O)CCCCCCCCCCCCCCCCCCC(=O)O)C(=O)O)C(=O)N[C@@H](CCC(N)=O)C(=O)N[C@@H](C)C(=O)N[C@@H](C)C(=O)NC1(C(=O)N[C@@H](CCC(=O)O)C(=O)N[C@@H](Cc2ccccc2)C(=O)N[C@H](C(=O)N[C@@H](CCC(=O)O)C(=O)N[C@@H](Cc2c[nH]c3ccccc23)C(=O)N[C@@H](CC(C)C)C(=O)N[C@@H](CC(C)C)C(=O)N[C@@H](C)C(=O)N[C@H](CCC(=O)O)C(=O)NCC(=O)N2CCC[C@H]2C(=O)N[C@@H](CO)C(=O)N[C@@H](CO)C(=O)NCC(=O)N[C@@H](C)C(=O)N2CCC[C@H]2C(=O)N2CCC[C@H]2C(=O)N2CCC[C@H]2C(=O)N[C@@H](CO)C(N)=O)C(C)C)CC1"}, "B2": {"name": "Compound No. 0150 (peptide)", "peptide": "H[Aib]HGTFTSDYSILLEK([AEEA-AEEA-γGlu-C20 diacid])QAA[Ac4c]EFVEWLLA[dE]GPSSGAPPPS-NH2", "modifications": "N-terminus assumed", "SMILES": "CC[C@H](C)[C@H](NC(=O)[C@H](CO)NC(=O)[C@H](Cc1ccc(O)cc1)NC(=O)[C@H](CC(=O)O)NC(=O)[C@H](CO)NC(=O)[C@@H](NC(=O)[C@H](Cc1ccccc1)NC(=O)[C@@H](NC(=O)CNC(=O)[C@H](Cc1c[nH]cn1)NC(=O)C(C)(C)NC(=O)[C@@H](N)Cc1c[nH]cn1)[C@@H](C)O)[C@@H](C)O)C(=O)N[C@@H](CC(C)C)C(=O)N[C@@H](CC(C)C)C(=O)N[C@@H](CCC(=O)O)C(=O)N[C@@H](CCCCNC(=O)COCCOCCNC(=O)COCCOCCNC(=O)CC[C@H](NC(=O)CCCCCCCCCCCCCCCCCCC(=O)O)C(=O)O)C(=O)N[C@@H](CCC(N)=O)C(=O)N[C@@H](C)C(=O)N[C@@H](C)C(=O)NC1(C(=O)N[C@@H](CCC(=O)O)C(=O)N[C@@H](Cc2ccccc2)C(=O)N[C@H](C(=O)N[C@@H](CCC(=O)O)C(=O)N[C@@H](Cc2c[nH]c3ccccc23)C(=O)N[C@@H](CC(C)C)C(=O)N[C@@H](CC(C)C)C(=O)N[C@@H](C)C(=O)N[C@H](CCC(=O)O)C(=O)NCC(=O)N2CCC[C@H]2C(=O)N[C@@H](CO)C(=O)N[C@@H](CO)C(=O)NCC(=O)N[C@@H](C)C(=O)N2CCC[C@H]2C(=O)N2CCC[C@H]2C(=O)N2CCC[C@H]2C(=O)N[C@@H](CO)C(N)=O)C(C)C)CCC1"}, "B3": {"name": "Compound No. 0145 (peptide)", "peptide": "H[Aib]HGTFTSDLSILLEK([AEEA-AEEA-γGlu-C20 diacid])QAA[Ac4c]EFVEWLLA[dE]GPSSGAPPPS-NH2", "modifications": "N-terminus assumed", "SMILES": "CC[C@H](C)[C@H](NC(=O)[C@H](CO)NC(=O)[C@H](CC(C)C)NC(=O)[C@H](CC(=O)O)NC(=O)[C@H](CO)NC(=O)[C@@H](NC(=O)[C@H](Cc1ccccc1)NC(=O)[C@@H](NC(=O)CNC(=O)[C@H](Cc1c[nH]cn1)NC(=O)C(C)(C)NC(=O)[C@@H](N)Cc1c[nH]cn1)[C@@H](C)O)[C@@H](C)O)C(=O)N[C@@H](CC(C)C)C(=O)N[C@@H](CC(C)C)C(=O)N[C@@H](CCC(=O)O)C(=O)N[C@@H](CCCCNC(=O)COCCOCCNC(=O)COCCOCCNC(=O)CC[C@H](NC(=O)CCCCCCCCCCCCCCCCCCC(=O)O)C(=O)O)C(=O)N[C@@H](CCC(N)=O)C(=O)N[C@@H](C)C(=O)N[C@@H](C)C(=O)NC1(C(=O)N[C@@H](CCC(=O)O)C(=O)N[C@@H](Cc2ccccc2)C(=O)N[C@H](C(=O)N[C@@H](CCC(=O)O)C(=O)N[C@@H](Cc2c[nH]c3ccccc23)C(=O)N[C@@H](CC(C)C)C(=O)N[C@@H](CC(C)C)C(=O)N[C@@H](C)C(=O)N[C@H](CCC(=O)O)C(=O)NCC(=O)N2CCC[C@H]2C(=O)N[C@@H](CO)C(=O)N[C@@H](CO)C(=O)NCC(=O)N[C@@H](C)C(=O)N2CCC[C@H]2C(=O)N2CCC[C@H]2C(=O)N2CCC[C@H]2C(=O)N[C@@H](CO)C(N)=O)C(C)C)CCC1"}, "B4": {"name": "Compound No. 0149 (peptide)", "peptide": "H[Aib]HGTFTSDYSILLEK([AEEA-AEEA-γGlu-C20 diacid])QAA[Ac3c]EFVEWLLA[dE]GPSSGAPPPS-NH2", "modifications": "N-terminus assumed", "SMILES": "CC[C@H](C)[C@H](NC(=O)[C@H](CO)NC(=O)[C@H](Cc1ccc(O)cc1)NC(=O)[C@H](CC(=O)O)NC(=O)[C@H](CO)NC(=O)[C@@H](NC(=O)[C@H](Cc1ccccc1)NC(=O)[C@@H](NC(=O)CNC(=O)[C@H](Cc1c[nH]cn1)NC(=O)C(C)(C)NC(=O)[C@@H](N)Cc1c[nH]cn1)[C@@H](C)O)[C@@H](C)O)C(=O)N[C@@H](CC(C)C)C(=O)N[C@@H](CC(C)C)C(=O)N[C@@H](CCC(=O)O)C(=O)N[C@@H](CCCCNC(=O)COCCOCCNC(=O)COCCOCCNC(=O)CC[C@H](NC(=O)CCCCCCCCCCCCCCCCCCC(=O)O)C(=O)O)C(=O)N[C@@H](CCC(N)=O)C(=O)N[C@@H](C)C(=O)N[C@@H](C)C(=O)NC1(C(=O)N[C@@H](CCC(=O)O)C(=O)N[C@@H](Cc2ccccc2)C(=O)N[C@H](C(=O)N[C@@H](CCC(=O)O)C(=O)N[C@@H](Cc2c[nH]c3ccccc23)C(=O)N[C@@H](CC(C)C)C(=O)N[C@@H](CC(C)C)C(=O)N[C@@H](C)C(=O)N[C@H](CCC(=O)O)C(=O)NCC(=O)N2CCC[C@H]2C(=O)N[C@@H](CO)C(=O)N[C@@H](CO)C(=O)NCC(=O)N[C@@H](C)C(=O)N2CCC[C@H]2C(=O)N2CCC[C@H]2C(=O)N2CCC[C@H]2C(=O)N[C@@H](CO)C(N)=O)C(C)C)CC1"}, "B5": {"name": "Compound No. 0146 (peptide)", "peptide": "H[Aib]HGTFTSDLSILLEK([AEEA-AEEA-γGlu-C20 diacid])KAA[Ac3c]EFVEWLLA[dE]GPSSGAPPPS-NH2", "modifications": "N-terminus assumed", "SMILES": "CC[C@H](C)[C@H](NC(=O)[C@H](CO)NC(=O)[C@H](CC(C)C)NC(=O)[C@H](CC(=O)O)NC(=O)[C@H](CO)NC(=O)[C@@H](NC(=O)[C@H](Cc1ccccc1)NC(=O)[C@@H](NC(=O)CNC(=O)[C@H](Cc1c[nH]cn1)NC(=O)C(C)(C)NC(=O)[C@@H](N)Cc1c[nH]cn1)[C@@H](C)O)[C@@H](C)O)C(=O)N[C@@H](CC(C)C)C(=O)N[C@@H](CC(C)C)C(=O)N[C@@H](CCC(=O)O)C(=O)N[C@@H](CCCCNC(=O)COCCOCCNC(=O)COCCOCCNC(=O)CC[C@H](NC(=O)CCCCCCCCCCCCCCCCCCC(=O)O)C(=O)O)C(=O)N[C@@H](CCCCN)C(=O)N[C@@H](C)C(=O)N[C@@H](C)C(=O)NC1(C(=O)N[C@@H](CCC(=O)O)C(=O)N[C@@H](Cc2ccccc2)C(=O)N[C@H](C(=O)N[C@@H](CCC(=O)O)C(=O)N[C@@H](Cc2c[nH]c3ccccc23)C(=O)N[C@@H](CC(C)C)C(=O)N[C@@H](CC(C)C)C(=O)N[C@@H](C)C(=O)N[C@H](CCC(=O)O)C(=O)NCC(=O)N2CCC[C@H]2C(=O)N[C@@H](CO)C(=O)N[C@@H](CO)C(=O)NCC(=O)N[C@@H](C)C(=O)N2CCC[C@H]2C(=O)N2CCC[C@H]2C(=O)N2CCC[C@H]2C(=O)N[C@@H](CO)C(N)=O)C(C)C)CC1"}, "B6": {"name": "Compound No. 0147 (peptide)", "peptide": "H[Aib]HGTFTSDLSILLEK([AEEA-AEEA-γGlu-C20 diacid])KAA[Ac4c]EFVEWLLA[dE]GPSSGAPPPS-NH2", "modifications": "N-terminus assumed", "SMILES": "CC[C@H](C)[C@H](NC(=O)[C@H](CO)NC(=O)[C@H](CC(C)C)NC(=O)[C@H](CC(=O)O)NC(=O)[C@H](CO)NC(=O)[C@@H](NC(=O)[C@H](Cc1ccccc1)NC(=O)[C@@H](NC(=O)CNC(=O)[C@H](Cc1c[nH]cn1)NC(=O)C(C)(C)NC(=O)[C@@H](N)Cc1c[nH]cn1)[C@@H](C)O)[C@@H](C)O)C(=O)N[C@@H](CC(C)C)C(=O)N[C@@H](CC(C)C)C(=O)N[C@@H](CCC(=O)O)C(=O)N[C@@H](CCCCNC(=O)COCCOCCNC(=O)COCCOCCNC(=O)CC[C@H](NC(=O)CCCCCCCCCCCCCCCCCCC(=O)O)C(=O)O)C(=O)N[C@@H](CCCCN)C(=O)N[C@@H](C)C(=O)N[C@@H](C)C(=O)NC1(C(=O)N[C@@H](CCC(=O)O)C(=O)N[C@@H](Cc2ccccc2)C(=O)N[C@H](C(=O)N[C@@H](CCC(=O)O)C(=O)N[C@@H](Cc2c[nH]c3ccccc23)C(=O)N[C@@H](CC(C)C)C(=O)N[C@@H](CC(C)C)C(=O)N[C@@H](C)C(=O)N[C@H](CCC(=O)O)C(=O)NCC(=O)N2CCC[C@H]2C(=O)N[C@@H](CO)C(=O)N[C@@H](CO)C(=O)NCC(=O)N[C@@H](C)C(=O)N2CCC[C@H]2C(=O)N2CCC[C@H]2C(=O)N2CCC[C@H]2C(=O)N[C@@H](CO)C(N)=O)C(C)C)CCC1"}}, "note": "Starred links: 1 amine or outer side, 2 acyl side, 3 side chain; linkers in the order of their positions; H or OH if unused. Non-standard residues stand in square brackets, D forms with d. Groups on a side chain read outwards from the residue. No end group written: not given here. *: point of attachment. C20 diacid = O=C(O)CCCCCCCCCCCCCCCCCCC(=O)*; γGlu = O=C(O)[C@H](CCC(=O)[*:2])N[*:1]; Ac4c = NC1(C(=O)O)CCC1; AEEA = NCCOCCOCC(=O)O; Ac3c = NC1(C(=O)O)CC1; Aib = CC(C)(N)C(=O)O", "data": [{"target": "human glucagon-like peptide-1 receptor (human, UniProt P43220 24-463)", "assay": "cell-based or functional assay", "units": {"Activity against human GLP-1R (EC50 nM)": "nM"}, "values": [{"binder": "B1", "Activity against human GLP-1R (EC50 nM)": 0.06}, {"binder": "B2", "Activity against human GLP-1R (EC50 nM)": 0.076}, {"binder": "B3", "Activity against human GLP-1R (EC50 nM)": 0.057}, {"binder": "B4", "Activity against human GLP-1R (EC50 nM)": 0.071}, {"binder": "B5", "Activity against human GLP-1R (EC50 nM)": 0.033}, {"binder": "B6", "Activity against human GLP-1R (EC50 nM)": 0.035}]}, {"target": "T1, human glucose-dependent insulinotropic polypeptide receptor (human, UniProt P48546 22-466)", "T1 sequence (looked up)": "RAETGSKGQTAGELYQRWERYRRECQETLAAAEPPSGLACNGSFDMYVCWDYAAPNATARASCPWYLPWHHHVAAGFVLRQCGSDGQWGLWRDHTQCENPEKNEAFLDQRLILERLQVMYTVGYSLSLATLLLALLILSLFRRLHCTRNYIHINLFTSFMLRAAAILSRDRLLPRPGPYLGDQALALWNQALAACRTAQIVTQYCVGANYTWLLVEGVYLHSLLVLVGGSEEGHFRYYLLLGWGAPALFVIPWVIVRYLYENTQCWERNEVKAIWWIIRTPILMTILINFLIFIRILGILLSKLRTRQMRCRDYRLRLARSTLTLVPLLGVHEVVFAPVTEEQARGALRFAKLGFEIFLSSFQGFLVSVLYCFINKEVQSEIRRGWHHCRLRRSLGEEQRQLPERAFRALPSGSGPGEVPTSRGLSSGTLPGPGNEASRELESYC", "assay": "cell-based or functional assay", "units": {"Activity against human GIPR (EC50 nM)": "nM"}, "values": [{"binder": "B1", "Activity against human GIPR (EC50 nM)": 0.006}, {"binder": "B2", "Activity against human GIPR (EC50 nM)": 0.002}, {"binder": "B3", "Activity against human GIPR (EC50 nM)": 0.003}, {"binder": "B4", "Activity against human GIPR (EC50 nM)": 0.004}, {"binder": "B5", "Activity against human GIPR (EC50 nM)": 0.009}, {"binder": "B6", "Activity against human GIPR (EC50 nM)": 0.005}]}, {"target": "human glucagon receptor (human, UniProt P47871 26-477)", "sequence (P47871 26-477)": "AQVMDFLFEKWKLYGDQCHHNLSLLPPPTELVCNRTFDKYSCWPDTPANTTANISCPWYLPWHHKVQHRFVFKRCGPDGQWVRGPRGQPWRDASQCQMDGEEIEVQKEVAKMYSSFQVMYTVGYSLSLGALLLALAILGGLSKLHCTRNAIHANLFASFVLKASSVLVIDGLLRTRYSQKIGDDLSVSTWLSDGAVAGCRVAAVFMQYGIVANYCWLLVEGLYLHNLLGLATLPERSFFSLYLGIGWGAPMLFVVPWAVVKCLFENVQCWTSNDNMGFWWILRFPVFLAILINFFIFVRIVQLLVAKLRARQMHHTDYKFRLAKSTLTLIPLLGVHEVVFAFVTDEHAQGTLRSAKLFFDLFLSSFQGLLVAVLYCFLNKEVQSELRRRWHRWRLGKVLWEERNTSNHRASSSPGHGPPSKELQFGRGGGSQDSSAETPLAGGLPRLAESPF", "assay": "cell-based or functional assay", "units": {"Activity against human GCGR (EC50 nM)": "nM"}, "values": [{"binder": "B1", "Activity against human GCGR (EC50 nM)": 0.549}, {"binder": "B2", "Activity against human GCGR (EC50 nM)": 0.076}, {"binder": "B3", "Activity against human GCGR (EC50 nM)": 0.143}, {"binder": "B4", "Activity against human GCGR (EC50 nM)": 0.301}, {"binder": "B5", "Activity against human GCGR (EC50 nM)": 0.146}, {"binder": "B6", "Activity against human GCGR (EC50 nM)": 0.041}]}]}
